In US7264932B2, “Nuclease inhibitor cocktail” (Applera Corporation, priority 1999, dated 2007):

T1: bovine RNase A (Bos taurus, UniProt P61823)
T1 sequence (P61823 27-150): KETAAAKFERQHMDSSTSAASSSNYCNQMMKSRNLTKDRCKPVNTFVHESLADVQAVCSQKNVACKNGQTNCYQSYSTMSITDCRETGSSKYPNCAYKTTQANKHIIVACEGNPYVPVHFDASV

B1: RIP: human placental RNase Inhibitor Protein (protein, UniProt P13489 2-461, looked up)
Ribonuclease inhibitor: SLDIQSLDIQCEELSDARWAELLPLLQQCQVVRLDDCGLTEARCKDISSALRVNPALAELNLRSNELGDVGVHCVLQGLQTPSCKIQKLSLQNCCLTGAGCGVLSSTLRTLPTLQELHLSDNLLGDAGLQLLCEGLLDPQCRLEKLQLEYCSLSAASCEPLASVLRAKPDFKELTVSNNDINEAGVRVLCQGLKDSPCQLEALKLESCGVTSDNCRDLCGIVASKASLRELALGSNKLGDVGMAELCPGLLHPSSRLRTLWIWECGITAKGCGDLCRVLRAKESLKELSLAGNELGDEGARLLCETLLEPGCQLESLWVKSCSFTAACCSHFSSVLAQNRFLLELQISNNRLEDAGVRELCQGLGQPGSVLRVLWLADCDVSDSSCSSLAATLLANHSLRELDLSNNCLGDAGILQLVESVRQPGCLLEQLVLYDIYWSEEMEDRLQALEKDKPSLRVIS
B2: PK: proteinase K, protease that digests RNase proteins to peptide fragments (protein, UniProt P06873 106-384, looked up)
Proteinase K: AAQTNAPWGLARISSTSPGTSTYYYDESAGQGSCVYVIDTGIEASHPEFEGRAQMVKTYYYSSRDGNGHGTHCAGTVGSRTYGVAKKTQLFGVKVLDDNGSGQYSTIIAGMDFVASDKNNRNCPKGVVASLSLGGGYSSSVNSAAARLQSSGVMVAVAAGNNNADARNYSPASEPSVCTVGASDRYDRRSSFSNYGSVLDIFGPGTSILSTWIGGSTRSISGTSMATPHVAGLAAYLMTLGKTTAASACRYIADTANKGDLSNIPFGTVNLLAYNNYQA

What was measured:
bovine RNase A = biological target: T1, bovine RNase A; assay: Intactness of total RNA (RNA LabChip), bovine RNase A; type: biochemical; conditions: 0.2u/ul rip, 5 pg/ul bovine rnase a, e. coli total rna, room temperature 4 min
Procedure: A total of 100 pg/ul e. […].
Mouse pancreatic tissue (5 mg) was disrupted in 50 ul of 24 mM Hepes, pH 7.2, 50 mM NaCl, 1 mM MgCl2. The diluted lysate (1:20,000) was pre-incubated with 50 uM Benzopurpurin B (BpB) for 30 sec and then added to 100 ng/ul mouse liver total RNA (Ambion) and incubated at 23 C for an additional 4 min. Samples were quenched in a guanidinium lysis buffer, and the RNA purified via MEGAclear™ MAG-96 and eluted with 20 ul nuclease-free water. […] These experiments were conducted in the same fashion except that 100 uM BpB was employed. The sample (1 ul) was analyzed by 2100 BioAnalyzer software (Agilent) after separation on an RNA LabChip.
Pancreatic tissue (5 mg) was dounced in 50 ul of 24 mM Hepes, pH 7.2, 50 mM NaCl, 1 mM MgCl2. The lysate was diluted (1:20,000) and then pre-incubated with 200 uM of 467929. […] All samples were pre-incubated for 30 sec before being added to 100 ng/ul mouse liver total RNA (Ambion) and incubated at 23C for an additional 4 min. The RNA was then immediately purified via MEGAclear™ MAG-96 and eluted with 20 ul nuclease-free water. The recovered RNA (1 ul) was analyzed by 2100 BioAnalyzer software after separation on an RNA LabChip.

[1] = tested on: total RNase activity in pancreas lysate; assay: RNaseAlert fluorescent assay, pancreas lysate; type: biochemical, mouse; conditions: Pancreas, 0.5 U/ul RIP
Procedure: (§1) Flash-frozen mouse tissues (5 mg) were dounced in 50 ul of 24 mM Hepes, pH 7.2, 50 mM NaCl, 1 mM MgCl2. RNase activity was measured using Ambion's fluorescent RNaseAlert™ assay ([…] substrate, 10 ug/ml ultrapure BSA) via BMG POLARstar Optima Fluorometer according to the manufacturer's protocol. In addition to measuring total RNase activity, lysates were treated with Ap5A, heat (90 C for 10 min), or 0.5 U/ul RIP. Tissue lysate dilutions: pancreas 1:16,200; liver 1:17; thymus 1:17; kidney 1:17; spleen 1:810; lung 1:810. The data were normalized to maximum RNase activity observed in tissue lysate with kidney being the tissue with the lowest RNase activity and assigned the arbitrary unit of 1. […] However, RIP is specific to RNase A superfamily enzymes, where Ap5A, as a RNA analogue, is expected to be a more general RNase inhibitor.
Pancreatic tissue (5 mg) was dounced in 50ul of 24 mM Hepes, pH 7.2, 50 mM NaCl, 1 mM MgCl2. Diluted pancreas lysate (1:12,000) was subjected to a 1/10 volume of negatively charged SP resin. RNase activity of the clarified lysate was measured using. Ambion's fluorescent RNaseAlert™ assay (40 nM substrate, 10 ug/ml ultrapure BSA) via BMG POLARstar Optima, according to the manufacturer's instructions. Resin treatment removed >95% of total RNase activity in diluted pancreas lysate. […]

[2] = tested on: total RNase activity in spleen lysate; assay: RNaseAlert fluorescent assay, spleen lysate; type: biochemical, mouse; conditions: 0.5 U/ul RIP
Procedure: as §1

[3] = tested on: total RNase activity in lung lysate; assay: RNaseAlert fluorescent assay, lung lysate; type: biochemical, mouse; conditions: 0.5 U/ul RIP
Procedure: as §1

[4] = tested on: total RNase activity in murine kidney plus pancreatic lysate; assay: Proteinase K inactivation of total RNase activity in kidney lysate with pancreatic lysate; type: biochemical; conditions: 600 ng/uL PK
Procedure: Murine kidney (40 ul of 0.1 mg/ul) was introduced into a 50 uL reaction with a dilute pancreatic lysate (1 or 10 ul of pancreas at 0.1 mg/ul) prepared in 24 mM Hepes, pH 7.2, 50 mM NaCl, 1 MM MgCl2. All samples were digested at 50C for 5 min in PK buffer at 23C. […] Although proteinase K is a protein-based inhibitor, RNase inactivation occurs by a very different mechanism than a protein inhibitor such as RIP, since proteinase K digests RNase proteins to peptide fragments, thereby destroying the folded (active) conformation of the enzyme.

Molecule | protection of total RNA from degradation (bovine RNase A) | % Inhibition [1] | Slope/sec Final (After RIP addition) [1] | % Inhibition [2] | Slope/sec Final (After RIP addition) [2] | % Inhibition [3] | Slope/sec Final (After RIP addition) [3] | Fold Reduction ([4]; 1 uL pancreas) | Slope ([4]; 1 uL pancreas) | Fold Reduction ([4]; 10 uL pancreas) | Slope ([4]; 10 uL pancreas) | Slope ([4]; No pancreas)
B1 | significant protection | 99.7% | 0.17 | 98.0% | 1.08 | 99.3% | 0.21 |  |  |  |  | 
B2 |  |  |  |  |  |  |  | 1283 | 0.0938 RFU/sec | 242 | 0.6074 RFU/sec | 0.0123 RFU/sec
